Assay [1] addresses human recombinant I-domain of the CR3 alpha subunit CD11b (human). Nature of the assay: SPR; Biacore S200; HIV virions flowed over immobilised rI-domain or rCR3; blank ethanolamine reference flow cell; mean Kd ± SD from a minimum of two technical repeats on each of two flow cells. (Surface plasmon resonance follows binding to a sensor surface in real time, without labels.)
Assay [2] addresses human recombinant complement receptor 3 (integrin αMβ2, CD11b/CD18) (human) (UniProt P11215). The description is as above.
The target of assay [3] is complement receptor 3 (CD11b/CD18) on primary human cervical epithelial (Pex) cells (human (endogenous in Pex cells)) (UniProt P11215). Nature of the assay: fluorometric adherence assay on cells; virions 10 ng/mL p24 equivalent, 2 h on CHO or Pex cells; cells fixed, HIV immunolabelled (goat polyclonal LS-C103187, FITC secondary) and quantified against a standard curve of virus.

For assay [4] the target is unchanged.
Assay [5] has as its target human complement receptor 3 (CD11b/CD18) on CHO-CR3 cells (human) (UniProt P11215). Briefly: fluorometric adherence assay on cells; virions 10 ng/mL p24 equivalent, 2 h on CHO or Pex cells; cells fixed, HIV immunolabelled (goat polyclonal LS-C103187, FITC secondary) and quantified against a standard curve of virus.

One may read the Kd as the equilibrium constant for the complex coming apart. “HIV-1 strain NL4-3 AD8 virions produced in HEK293T cells (envelope glycoprotein gp120/gp41 on the virion surface) (complex)”: in assay [1], the Kd came out at 239 nM. In assay [2], the Kd is 337 nM. Further, in assay [3], the adherent virus (p24 HIV equivalent) was determined as 1.01 ng/mL and the percent of the inoculum adherent amounted to 10%.

Consider “HIV-1 strain NL4-3 virions produced in HEK293T cells (envelope glycoprotein gp120/gp41 on the virion surface) (complex)”, for which the Kd in assay [1] was determined as 90.9 nM; in assay [2], 192 nM.

Regarding “HIV-1 transmitted founder strain REJO virions produced in HEK293T cells (envelope glycoprotein gp120/gp41 on the virion surface) (complex)”, the Kd came out at 265 nM in assay [1] and 90.3 nM in assay [2].

As for “HIV-1 transmitted founder strain RHPA virions produced in HEK293T cells (envelope glycoprotein gp120/gp41 on the virion surface) (complex)”, the Kd in assay [1] came out at 912 nM; in assay [2], 249 nM.

As to “HIV-1 transmitted founder strain WITO virions produced in HEK293T cells (envelope glycoprotein gp120/gp41 on the virion surface) (complex)”, in assay [4], the HIV-1 transcytosis across a polarized Pex cell monolayer in Transwells, no competimer; HIV p24 in the basal chamber as percent of the inoculum (10 ng/mL p24 equivalent) came out at 4%. The Kd in assay [1] worked out at 298 nM; in assay [2] it was 242 nM.

In the case of “HIV-1 transmitted founder strain WITO virions propagated in primary human PBMCs (envelope glycoprotein gp120/gp41 on the virion surface) (complex)”, the Kd in assay [1] stood at 7.92 nM; in assay [2], 10.6 nM.

With “HIV-1 transmitted founder strain WITO virions, producer cells not stated (envelope glycoprotein gp120/gp41 on the virion surface) (complex)”, the adherent virus (p24 HIV equivalent) was 1.35 ng/mL in assay [3] and 2.4 ng/mL in assay [5]. Moreover, the percent of the inoculum adherent in assay [3] was 13%; in assay [5], 24%.

Source of the values: publication PMC8749410.
